Experimental data as given in patent US20130053541A1, “METHODS FOR DISCOVERING MOLECULES THAT BIND TO PROTEINS” (LYNNTECH, INC., priority 2011, published 2013).

target: T1, native human ESRRG protein (Homo sapiens, UniProt P62508); experiment: peptide microarray screening for ESRRG binding (Iteration 1 and 2); conditions: Iteration 1 primary screen
T1 sequence (P62508 1-458): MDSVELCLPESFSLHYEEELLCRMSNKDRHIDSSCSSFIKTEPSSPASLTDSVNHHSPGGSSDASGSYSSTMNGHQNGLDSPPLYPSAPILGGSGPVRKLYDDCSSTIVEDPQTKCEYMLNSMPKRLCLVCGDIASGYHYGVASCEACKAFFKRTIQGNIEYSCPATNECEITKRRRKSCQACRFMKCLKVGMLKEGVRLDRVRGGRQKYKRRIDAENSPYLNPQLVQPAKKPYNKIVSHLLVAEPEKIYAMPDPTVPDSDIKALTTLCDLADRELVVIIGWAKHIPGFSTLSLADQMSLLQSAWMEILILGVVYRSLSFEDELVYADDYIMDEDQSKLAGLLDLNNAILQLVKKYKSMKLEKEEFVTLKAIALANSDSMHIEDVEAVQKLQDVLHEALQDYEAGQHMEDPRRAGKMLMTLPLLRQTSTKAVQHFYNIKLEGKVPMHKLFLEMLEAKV
Source text: The BLOSUM62 matrix was divided into Tiers based, with Tier 1 comprising “most conserved” (lowest penalty) and Tier 3 comprising “least conserved” (highest penalty) mutations observed in nature. Sequences for microarray production for the primary stage (Iteration 1) of screening for protein binding were created by permuting AA positions 4 and/or 5 only (i.e., core of sequence) of parent 8-mer peptides using Tier 1 and Tier 3 substitutions. This allows the systematic variation of the sequence in order to identify the most important motif within the larger candidate ligand sequence that is needed for binding the target protein. All peptides on the array were grown from the C→N terminal, with the exposed N-terminal amino acid masked by an acetyl group to prevent folding of the sequence and enable full presentation of the peptide to its target protein.
Screening was carried out typically by hybridization of the protein (1 μg/mL) against the array for 1 h at 4° C.; detection of bound protein was carried out using a fluorescently labeled anti-ESRRG mAb. (Direct labeling of ESRRG and alternative detection strategies are equally valid).
Highest binders (based on relative fluorescence signal) were selected and iteratively sequence expanded and arrayed (Iteration 2); and ESRRG binding sequences were selected as above. For iterative arrays, the core positions (AA 4 and 5) were kept unchanged while the outer amino acids (2, 3, 6, and/or 7) were permuted using Tier 3 substitutions.
Daughter candidate ligands and their new Tier 3 and/or Tier 1 based combinations were synthesized in situ on an addressable peptide microarray and screened against native human ESRRG protein in order to determine sequences that bind to this protein. Bound protein was detected by a fluorescently labeled anti-ESRRG mAb. Results are obtained in fluorescence intensity units which were used to rank the peptide ligands. Excess (100×) competing biological matrices (human serum, HSA/BSA or bacterial protein extract) were used as backgrounds to select for specific ligands to the protein. Other competing proteins can be added to background for specificity selection and directed evolution of ligands.
Iterative sequence expansion and arraying of 10 highest binding ligands to ESRRG from Iteration 1 was carried out and the new peptide sequences were synthesized on an array and screened against the protein, as described above. In this step, the central 2 amino acids (core) in peptide sequences were maintained unchanged while outlying amino acids (2, 3, 6, and 7) were permuted (using Tier 1 and Tier 3 substitutions) in a ‘cipher’ or ‘combination’ lock approach. Further affinity maturation of sequence was observed, with multifold enhancement in binding signal of Iteration 2 sequences (i.e., Granddaughters) compared to their respective parents from Iteration 1 (i.e., Daughters) on the same array.

Row | Substance | log2 (Sample B/Sample A)
1 | Ac-ANNSRLLH-NH2 (C-terminus assumed) | 5.54
2 | Ac-AANMFLLL-NH2 (C-terminus assumed) | 5.37
3 | Ac-NSLKKHLL-NH2 (C-terminus assumed) | 10.84
4 | Ac-IKQNHNNS-NH2 (C-terminus assumed) | 9.63
5 | Ac-LLHSSKSQ-NH2 (C-terminus assumed) | 5.40
6 | Ac-AIRGALMG-NH2 (C-terminus assumed) | 5.48
7 | Ac-AIRLHLMG-NH2 (C-terminus assumed) | 5.07
8 | Ac-NSLRKHLL-NH2 (C-terminus assumed) | 5.36
9 | Ac-NIKVNANN-NH2 (C-terminus assumed) | 7.62
10 | Ac-NSLLKHLL-NH2 (C-terminus assumed) | 7.65

same assay, conditions: Iteration 1 primary screen; fluorescence intensity units

Row | Substance | Sample A (Bkgd) Signal | Sample B (Probe) Signal
11 | AANNYLLL | 31.22 | 3,436.10
12 | ANNILLLH | 13.51 | 1,093.06
13 | RKAIFGKY | 23.63 | 
14 | Ac-ANNSRLLH-NH2 (C-terminus assumed) | 31.74 | 1,480.35
15 | LHLKGSQT | 6.97 | 
16 | ANNLSLLH | 21.54 | 1,220.01
17 | ANNLQLLH | 47.08 | 1,537.71
18 | AIRGHLMG | 18.88 | 
19 | AANYILLL | 13.78 | 2,012.02
20 | NSLRQHLL | 47.85 | 3,242.55
21 | ANNFLLLH | 46.43 | 1,624.73
22 | ANNSWLLH | 20.06 | 1,259.63
23 | ANNSSLLH | 7.39 | 1,153.13
24 | ANNSLLLH | 14.53 | 1,321.14
25 | ANNLWLLH | 41.92 | 1,606.54
26 | Ac-AANMFLLL-NH2 (C-terminus assumed) | 42.26 | 1,752.81
27 | LHLRYSQT | 33.10 | 
28 | Ac-NSLKKHLL-NH2 (C-terminus assumed) | 5.04 | 9,219.14
29 | Ac-IKQNHNNS-NH2 (C-terminus assumed) | 1.00 | 793.75
30 | Ac-LLHSSKSQ-NH2 (C-terminus assumed) | 19.42 | 819.16
31 | AANMYLLL | 64.73 | 4,011.85
32 | Ac-AIRGALMG-NH2 (C-terminus assumed) | 19.03 | 851.06

Row | Substance | Sample A (Bkgd) Signal | Sample B (Probe) Signal
33 | KSLLQQLL | 88.50 | 7,385.40
34 | ANNIWLLH | 30.52 | 1,012.72
35 | AANMSLLL | 16.99 | 1,217.01
36 | NSLRSHLL | 20.67 | 1,673.50
37 | NSLSWHLL | 25.76 | 1,042.20
38 | IKQNYNNS | 23.70 | 
39 | LLHLQKSQ | 14.95 | 
40 | Ac-AIRLHLMG-NH2 (C-terminus assumed) | 28.09 | 942.75
41 | Ac-NSLRKHLL-NH2 (C-terminus assumed) | 20.79 | 856.14
42 | Ac-NIKVNANN-NH2 (C-terminus assumed) | 3.04 | 598.87
43 | NNSWSLHL | 23.54 | 
44 | ANNLKLLH | 56.94 | 1,672.30
45 | AANMLLLL | 25.96 | 1,191.86
46 | ANNVLLLH | 65.96 | 1,997.75
47 | ANNVSLLH | 62.19 | 1,818.72
48 | NIKVHANN | 9.00 | 
49 | AIRVHLMG | 11.78 | 
50 | Ac-NSLLKHLL-NH2 (C-terminus assumed) | 73.81 | 14,810.16
51 | AANYLLLL | 22.22 | 3,763.81
52 | NSLLQHLL | 2.42 | 9,739.76
53 | AANYVLLL | 14.74 | 2,199.01

same assay, conditions: Iteration 2 iterative screen

Row | Substance | log2 (Sample B/Sample A)
54 | Ac-LYLLKHHP-NH2 (C-terminus assumed) | 3.05

same assay, conditions: Iteration 2 iterative screen; fluorescence intensity units

Row | Substance | Sample A (Bkgd) Signal | Sample B (Probe) Signal
55 | EDSYPRDG | 297.83 | 5,021.94
56 | VLLHYGLY | 347.96 | 1,796.19
57 | AHNYLLEH | 115.46 | 
58 | RRSYPRGR | 445.58 | 1,661.87
59 | HNSYPRNE | 143.58 | 
60 | HDNMYLNE | 81.50 | 7,243.75
61 | WGKLKQGE | 209.10 | 1,231.15
62 | YHNYLLHP | 240.19 | 1,309.00
63 | DRSYPRHT | 68.94 | 
64 | NNNFSLHM | 199.94 | 4,374.19
65 | LFKLKQDG | 277.71 | 2,776.37
66 | Ac-LYLLKHHP-NH2 (C-terminus assumed) | 304.92 | 2,527.00
67 | LFKLKQND | 366.58 | 1,857.96
68 | PFKLKQGN | 1,523.23 | 6,982.96
69 | PGKGHFPI | 260.71 | 
70 | WNSYPRND | 292.56 | 2,198.94
71 | IFLLQQDN | 238.04 | 1,007.54
72 | HNNFSLEP | 107.88 | 
73 | WIKLKQND | 181.65 | 2,343.96
74 | LFLLQQDD | 219.12 | 2,423.10
75 | FFNFSLPA | 165.50 | 1,043.90
76 | HYKLKQHE | 165.10 | 1,296.65
77 | GKSYPRHR | 553.79 | 3,049.48

Row | Substance | Sample A (Bkgd) Signal | Sample B (Probe) Signal
78 | FWNMYLNP | 158.25 | 
79 | HRSYPRVY | 494.92 | 2,451.98
80 | DNNYLLLL | 156.87 | 2,242.02
81 | WRSYPRRA | 619.96 | 2,611.56
82 | MYKLKQDN | 184.58 | 
83 | NLLLKHPD | 216.15 | 2,297.98
84 | LILLQQLD | 177.10 | 1,251.12
85 | ALNFSLNW | 152.44 | 
86 | RLLHYGSY | 290.67 | 1,203.13
87 | WANYLLPP | 182.90 | 2,860.10
88 | HRSYPRRG | 805.42 | 19,001.58
89 | FWKGHFDF | 230.42 | 1,455.83
90 | PWKLKQDP | 197.52 | 1,339.15
91 | NNSYPRHR | 731.12 | 3,422.79
92 | FVNFSLGI | 238.31 | 
93 | WLLLKHGL | 222.13 | 
94 | HLKLKQEN | 183.65 | 1,745.92
95 | DINFSLGI | 160.50 | 4,797.29
96 | PDSYPRWG | 288.88 | 5,591.60
97 | HNNYLLNN | 190.35 | 
98 | TGKLKQDG | 209.87 | 2,464.29
99 | NFNYLLPH | 470.56 | 13,817.90
100 | HFKLKQGG | 641.69 | 3,108.23
